Reference: publication PMC9160250, “Nuclear Vav3 is required for polycomb repression complex-1 activity in B-cell lymphoblastic leukemogenesis” (Nature Communications, 2022)

Biological target: T1, Bmi1 (mouse (endogenous in Ba/F3 cells and …, UniProt P25916 1-324))
T1 construct: Bmi1, mouse, endogenous protein of Ba/F3 cells and of primary murine B-cell progenitors; also called PCGF4; source: endogenous, Ba/F3 cells (cytoplasmic and nuclear fractions; fixed cells) and murine B-cell progenitors (fixed cells)
T1 sequence (looked up): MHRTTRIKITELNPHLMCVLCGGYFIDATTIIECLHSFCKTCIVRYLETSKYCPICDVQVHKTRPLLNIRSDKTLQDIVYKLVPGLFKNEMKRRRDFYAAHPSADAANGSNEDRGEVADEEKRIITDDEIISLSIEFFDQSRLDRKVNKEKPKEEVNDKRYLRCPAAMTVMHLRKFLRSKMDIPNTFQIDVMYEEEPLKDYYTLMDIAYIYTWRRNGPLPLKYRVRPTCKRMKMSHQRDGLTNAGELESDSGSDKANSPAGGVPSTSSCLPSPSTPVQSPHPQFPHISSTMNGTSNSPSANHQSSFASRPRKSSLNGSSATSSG
Test: proximity ligation; Duolink PLA in fixed, permeabilised primary murine B-cell progenitors on fibronectin-coated slides (empty vector or p190-BCR-ABL transduced; WT, Rac2-/-, or Vav3-/- transduced with empty vector, Vav3 FL or Vav3 N369A); confocal microscopy
Settings: partners not purified

B1: Vav3 NA (N369A mutant which loses the GEF activity) (natural protein, UniProt Q9R0C8 1-847, looked up)
chain: MEPWKQCAQWLIHSKVLPPNHRVTWDSAQVFDLAQTLRDGVLLCQLLNNLRPHSINLKEINLRPQMSQFLCLKNIRTFLAACCDTFGMRKSELFEAFDLFDVRDFGKVIETLSRLSRTPIALATGIRPFPTEESINDEDIYKGLPDLIDETRVEDEEDLYDCVYGEDEGGEVYEDLMKAEEAQQPKSQENDIRSCCLAEIRQTEEKYTETLESIEKYFMAPLKRFLTAAEFDSVFINIPDLVKVHRSLMQEIHDSIVNKDDQNLYQVFINYKERLVIYGQYCSGVESAISNLDYISKTKEDVKLKLEECSKRANNGKFTLRDLLVVPMQRVLKYHLLLQELVKHTHDPMEKANLKLALDAMKDLAQYVAEVKRDNETLREIKQFQLSIENLNQPVLLFGRPQGDGEIRITTLDKHTKQERHIFLFDLAVIVCKRKGDNYEMKEIIDLQQYKIANNPTTDKENKKWSYGFYLIHTQGQNGLEFYCKTKDLKKKWLEQFEMALSNIRPDYADSNFHDFKMHTFTRVTSCRVCQMLLRGTFYQGYLCFKCGAKAHKECLGRVDNCGRVNSVEQGPFKPPEKRTNGLRRASRQVDPGLPKMQVIRNYTGTPAPGLHEGPPLHIQAGDTVELLRGDAHSVFWQGRNLASGEVGFFPSDAVKPSPCVPKPVDYSCQPWYAGPMERLQAETELINRVNSTYLVRHRTKESGEYAISIKYNNEAKHIKILTRDGFFHIAENRKFKSLMELVEYYKHHSLKEGFRTLDTTLQFPYKEPEQPAGQRGNRTGNSLLSPKVLGIAIARYDFCARDMRELSLLKGDMVKIYTKMSANGWWRGEVNGRVGWFPSTYVEEDE
notes: Vav3 with N369A; also called Vav3(N369A); Vav3N369A; source: lentiviral vector pCDH-EF1-MCS-IRES-GFP, transduced Vav3-/- leukemic murine B-cell progenitors (fixed cells)
fold reduction of the PLA signal against full-length Vav3: ~2 fold
